{"source": "patent US8846873B2", "about": "“Antibodies directed to GPNMB and uses thereof” (Celldex Therapeutics, Inc., priority 2004, dated 2014)", "molecules": {"B1": {"name": "Mab1.15.1 (protein, listed as Homo sapiens)", "chain": "QVQLQESGPGLVKPSQTLSLTCTVSGGSISSFNYYWSWIRHHPGKGLEWIGYIYYSGSTYSNPSLKSRVTISVDTSKNQFSLTLSSVTAADTAVYYCARGYNWNYFDYWGQGTLVTVSSA"}}, "key": {"SK-Mel-2 cells [1]": {"test_system": "SK-Mel-2 cells", "assay": "ADCC assay with human PBMC (DELFIA EuTDA cytotoxicity)", "type": "cell-based", "settings": "human PBMC 30 to 100 fold; 2, 5, 10 μg/200 μl; listed as CR011 IgG2", "description": "We next examined whether the CR0111gG1 mAb could induce ADCC in SK-MEL-2 cells in culture in the presence of human PBMC. Human PBMC were isolated from whole blood using a Ficoll-Plaque. Briefly, in a 50 mL tube, 15 mL of PBS was added to 20 mL of whole blood which was underlayed with 10 mL Ficoll-Plaque and the tube was centrifuged at 2000 RPM. Mononuclear cells were collected from the interface and washed 3 times with PBS. The ADCC assay was carried out in a 96 well plate using a fluorescence assay for cytolysis from Perkin-Elmer (DELFIA EuTDA Cytotoxic assay). The procedure is based on loading target cells with a fluorescence enhancing ligand (BATDA, bis (acetoxymethyl) terpyridine—dicarboxylate). The hydrophic ligand penetrates the membrane quickly. Within the cell the esterbonds are hydrolyzed to form a hydrophilic ligand (TDA, terpyridine—dicarboxylic acid) which can no longer pass through the membrane. After cytolysis the ligand is released and introduced to the Europium solution. The europium and the ligand form a highly fluorescent and stable chelate (EuTDA). Fluorescence intensity are recorded using excitation and emission wavelengths as λex=340 nm and λem=613 nm, respectively."}, "GPNMB": {"target": "T1, GPNMB (Homo sapiens, UniProt Q14956)", "T1 construct": "made in house; host or cells: HEK 293", "T1 sequence (Q14956 23-492)": "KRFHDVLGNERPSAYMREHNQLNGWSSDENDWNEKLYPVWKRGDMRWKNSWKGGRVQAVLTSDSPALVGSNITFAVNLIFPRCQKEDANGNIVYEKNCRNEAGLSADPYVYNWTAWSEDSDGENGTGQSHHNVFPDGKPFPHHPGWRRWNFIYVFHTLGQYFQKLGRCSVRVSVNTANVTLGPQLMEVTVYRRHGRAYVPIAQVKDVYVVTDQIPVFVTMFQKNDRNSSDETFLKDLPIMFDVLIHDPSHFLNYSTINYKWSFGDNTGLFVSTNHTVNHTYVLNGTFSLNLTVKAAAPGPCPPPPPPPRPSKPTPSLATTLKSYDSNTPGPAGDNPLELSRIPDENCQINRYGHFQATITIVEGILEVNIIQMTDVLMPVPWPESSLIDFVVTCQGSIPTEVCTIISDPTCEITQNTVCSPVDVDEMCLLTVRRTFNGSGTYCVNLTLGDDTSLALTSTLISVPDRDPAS", "assay": "ELISA of hybridoma supernatants for binding to GPNMB", "description": "After 14 days of culture, hybridoma supernatants were screened for GPNMB specific monoclonal antibodies. In the Primary screen, the ELISA plates (Fisher, Cat. No. 12-565-136) were coated with 50 μL/well of GPNMB (1 μg/mL) in Coating Buffer (0.1 M Carbonate Buffer, pH 9.6, NaHCO3 8.4 g/L), then incubated at 4° C. overnight. After incubation, the plates were washed with Washing Buffer (0.05% Tween 20 in PBS) three times. 200 μL/well Blocking Buffer (0.5% BSA, 0.1% Tween 20, 0.01% Thimerosal in 1×PBS) were added and the plates were incubated at room temperature for 1 h. After incubation, the plates were washed with Washing Buffer three times. Aliquots (50 μL/well) of hybridoma supernatants and positive and negative controls were added, and the plates were incubated at room temperature for 2 h. The positive control used throughout was serum from the relevant GPNMB immunized XenoMouse® mouse and the negative control was serum from the KLH-immunized relevant strain of XenoMouse® mouse. After incubation, the plates were washed three times with Washing Buffer. 100 μL/well of detection antibody goat anti-huIgGfc-HRP (Caltag, Cat. No. H10507, using concentration was 1:2000 dilution) was added and the plates were incubated at room temperature for 1 hour. After incubation, the plates were washed three times with Washing Buffer. 100 μl/well of TMB (BioFX Lab. Cat. No. TMSK-0100-01) was added, and the plates were allowed to develop for about 10 minutes (until negative control wells barely started to show color). 50 μl/well stop solution (TMB Stop Solution (BioFX Lab. Cat. No. STPR-0100-01) was then added and the plates were read on an ELISA plate reader at a wavelength of 450 nm.\nHybridoma supernatants were screened for binding to GPNMB by ELISA as described above in Example 2."}, "[2]": {"test_system": "lymphoma or leukemia cell lines", "assay": "Clonogenic assay with 1.15.1-AE (methylcellulose)", "type": "cell-based", "settings": "various concentrations", "description": "Lymphoma or leukemia cell lines were mixed with methylcellulose base media (R&D Systems, USA) and in various concentrations of unconjugated and Auristatin E-conjugated 1.15.1 antibody before plating onto 6-well tissue culture plates (Becton Dickinson, Franklin Lakes, N.J., USA). […] Plates were incubated at 37° C. and examined daily. On days 14-18, colonies on the plates were counted."}, "SK-Mel-2 cells [3]": {"test_system": "SK-Mel-2 cells", "assay": "Cell cycle analysis (BrdU / propidium iodide flow cytometry)", "type": "cell-based, human", "settings": "SK-Mel-2, 24 hour, 1000 ng/mL", "description": "(§1) Briefly, cells were pulsed at the indicated times with 30 μM of bromodeoxyuridine (BrdU, Sigma) for 30 min, harvested, fixed and permeabilized in methanol. Nascent DNA synthesis was detected by anti-bromodeoxyuridine-FITC (BD Biosciences, San Jose, Calif.) staining. Total DNA content was detected using propidium iodide (PI, Sigma). For apoptosis analysis, cells were treated as above and labeled with Annexin V-FITC followed by propidium iodide exclusion using the Annexin V-FITC Apoptosis Detection kit I (BD PharMingen, San Diego, Calif.) according to the manufacturer's protocols. Flow cytometry (as described in the previous Example) was used to assay both cell cycle and apoptosis studies.\n(§2) DNA synthesis and cell cycle progression were determined by flow cytometry (Table 52)."}, "TK-10 cells": {"test_system": "TK-10 cells", "assay": "Cell cycle analysis (BrdU / propidium iodide flow cytometry)", "type": "cell-based, human", "settings": "TK-10, 24 hour, 1000 ng/mL", "description": "as §1, §2"}}, "note": "Entries after “also recorded” stand apart in the source; their conditions may differ."}
{"molecule": "B1", "values": [{"measurement": "ADCC / cytolysis of SK-MEL-2 cells", "setting": "SK-Mel-2 cells [1]", "value": "do not cause ADCC; also recorded: did not show any cytolysis"}, {"measurement": "Avg OD", "setting": "GPNMB; 12.3 ng/mL", "value": 0.168}, {"measurement": "Avg OD", "setting": "GPNMB; 37 ng/mL", "value": 0.381}, {"measurement": "Avg OD", "setting": "GPNMB; 111 ng/mL", "value": 0.701}, {"measurement": "Avg OD", "setting": "GPNMB; 333 ng/mL", "value": 0.902}, {"measurement": "Avg OD", "setting": "GPNMB; 1 μg/mL", "value": 1.051}, {"measurement": "Avg OD", "setting": "GPNMB; 3 μg/mL", "value": 1.159}, {"measurement": "effect on growth of all antigen positive hematopoietic cell lines", "setting": "[2]", "value": "no effect on growth"}, {"measurement": "% G1", "setting": "SK-Mel-2 cells [3]", "value": 63.6, "unit": "%"}, {"measurement": "% G2/M", "setting": "SK-Mel-2 cells [3]", "value": 6.4, "unit": "%"}, {"measurement": "% S-phase", "setting": "SK-Mel-2 cells [3]", "value": 25.2, "unit": "%"}, {"measurement": "% Sub-G1", "setting": "SK-Mel-2 cells [3]", "value": 0.5, "unit": "%"}, {"measurement": "% G1", "setting": "TK-10 cells", "value": 42.0, "unit": "%"}, {"measurement": "% G2/M", "setting": "TK-10 cells", "value": 6.3, "unit": "%"}, {"measurement": "% S-phase", "setting": "TK-10 cells", "value": 39.8, "unit": "%"}, {"measurement": "% Sub-G1", "setting": "TK-10 cells", "value": 0.3, "unit": "%"}]}
